Data taken from PMC12262051.
pKd: −log10 of the molar value.

Molecular target: JASPer protein (1-475) (Drosophila)
Test: MST; label-free (Monolith NT.LabelFree); JASPer constant at 0.4 uM, reconstituted nucleosomes in a 16-step dilution series (0.5 nM up to 16 uM); 20 mM HEPES pH 7.5, 50 mM NaCl, 1 mM TCEP, 0.05% Tween 20; 24 C; fitted as specific binding with Hill slope

| pKd | Substance |
| --- | --- |
| 6.49 | H3K36me2 mononucleosome (147 bp) (complex) |
| 6.22 | H3K36me3 mononucleosome (147 bp) (complex) |
| 5.40 | unmodified mononucleosome (147 bp, H3K36me0) (complex) |
